Data published in article PMC12691273.

B1: chicken forkhead box O1 (FOXO1) wild-type [chicken] / Ran protein [chicken (endogenous in granulosa cells)] (parent)
chain 1: MAEAPQLVDIDPDFEPLPRPRSCTWPLPRPEFNPPSSATSSPAPSCGGQPDGAAAAGAAVAVAASGALSADFISNLCLVEESEDFALPPAAAAPPESAACRCGDFSAPEAGCRLHPPGPPPVPPVPPAVAALSPGPVAGQPRKSSSSRRNAWGNLSYADLITKAIESSPEKRLTLSQIYEWMVKSVPYFKDKGDSNSSAGWKNSIRHNLSLHSKFIRVQNEGTGKSSWWMLNPEGGKSGKSPRRRAASMDNNSKFAKSRGRAAKKKASLQSGQEGNGDSPGSQFSKWPASPSSHSNDDFDNWSTFRPRTSSNASTISGRLSPILPEQDDLGDGDVHSMVYPSSATKMTSTLPSLSEMSSSENMENLLDNLNLLSPNTSMTVSTQSSSAALMQQTPGYSFASSTTSICSPNPDYRKFTYAQASMNSLPQIPMQTLQDSKSSYGSMSQFNCPAGLLKELLTSDSPPHNDILASVDTGVSQAGGRALGQGVLMVTNSVMPTYGNQPPHNKMMNPNARPHQGHNQPTPAVNGRALSHTVNPMSHTSCLNRLSTVKTSLQVPMSHQMQMNAMNPYAPVNSCNGYGRVGIVSLHQEKLPSDLDDMLIERLDCDMESIIRNDLMDGETLDFNFDSVLPNQSFQHSVKTTTHSWVSG
chain 2: not shown

Variants of: B1
Experiment: co-immunoprecipitation (IP FOXO1, WB Ran), band quantification
Settings: with Ran protein [chicken (endogenous in granulosa cells)]
[1] = with 740-Y-P, n = 3, read off a plot
[2] = with Ly294002, n = 3, read off a plot

| Variant | response [1] | response [2] |
| --- | --- | --- |
| chain 1 S248A | 1.2 | 0.28 |
| chain 1 S311A | 1.3 | 0.33 |
